Experimental data from paper PMC2064615.

Molecular target: taxol-stabilized microtubules polymerized from tubulin purified from bovine brain (bovine)
Test: co-sedimentation

B1: His-tagged recombinant emerin peptide corresponding to aa 73–180 (domain or fragment)
chain: MYDLPKKEDALLYQSKGYNDDYYEESYFTTRTYGEPESAGPSRAVRQSVTSFPDADAFHHQVHDDDLLSSSEEECKDRERPMYGRDSAYQSITHYRPVSASRSSLDLS
  stoichiometry N (tubulin heterodimers per emerin): 24

B2: emerin peptide aa 1–176 (most of the nucleoplasmic domain) (domain or fragment)
chain: MDNYADLSDTELTTLLRRYNIPHGPVVGSTRRLYEKKIFEYETQRRRLSPPSSSAASSYSFSDLNSTRGDADMYDLPKKEDALLYQSKGYNDDYYEESYFTTRTYGEPESAGPSRAVRQSVTSFPDADAFHHQVHDDDLLSSSEEECKDRERPMYGRDSAYQSITHYRPVSASRSS
  stoichiometry N (tubulin heterodimers per emerin): 8
